Molecular target: mutant E-cadherin-GFP (Y753, 754, 859, and 876 mutated into F) (human) (UniProt P12830)
Assay: co-IP; lysates of HEK293T cells transiently transfected with WT or mutant E-Cdh-GFP; IP with anti-GFP antibody; Western blot for α- and β-Ctn, densitometry relative to the WT band set to 1

UniProt P12830, sequence (P12830 other isoform, or with tags, fused parts or gaps mutant): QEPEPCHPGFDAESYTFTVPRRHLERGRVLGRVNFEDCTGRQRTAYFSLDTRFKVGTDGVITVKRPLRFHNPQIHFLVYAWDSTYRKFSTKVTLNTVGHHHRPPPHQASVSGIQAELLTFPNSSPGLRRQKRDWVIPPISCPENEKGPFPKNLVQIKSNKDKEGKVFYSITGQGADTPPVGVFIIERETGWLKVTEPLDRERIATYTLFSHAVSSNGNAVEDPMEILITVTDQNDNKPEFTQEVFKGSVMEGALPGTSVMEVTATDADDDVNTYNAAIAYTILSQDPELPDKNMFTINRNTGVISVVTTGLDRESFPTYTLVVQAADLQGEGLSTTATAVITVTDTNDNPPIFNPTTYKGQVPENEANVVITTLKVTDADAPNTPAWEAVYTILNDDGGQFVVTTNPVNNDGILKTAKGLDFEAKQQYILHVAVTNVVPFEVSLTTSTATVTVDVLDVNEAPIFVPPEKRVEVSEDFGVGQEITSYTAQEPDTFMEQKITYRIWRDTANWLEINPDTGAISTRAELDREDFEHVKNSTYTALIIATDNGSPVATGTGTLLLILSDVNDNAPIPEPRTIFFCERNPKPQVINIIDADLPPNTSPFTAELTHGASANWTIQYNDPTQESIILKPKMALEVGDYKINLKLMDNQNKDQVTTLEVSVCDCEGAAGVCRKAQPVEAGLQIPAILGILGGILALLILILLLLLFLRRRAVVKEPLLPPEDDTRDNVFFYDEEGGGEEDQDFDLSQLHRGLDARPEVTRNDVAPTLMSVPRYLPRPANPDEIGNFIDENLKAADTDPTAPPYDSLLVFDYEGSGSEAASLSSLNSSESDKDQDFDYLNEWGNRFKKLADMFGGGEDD

Row | Substance | reduction of co-immunoprecipitation relative to WT E-Cdh-GFP [%]
1 | α-catenin (from UniProt P35221 1-906) (natural protein) | 60
2 | β-catenin (from UniProt P35222 1-781) (natural protein) | 60

— paper PMC6966528
